According to patent US20110166034A1:
Each block holds one substance with its values, some of them ahead of it.

Columns and labels:
[1] = target: F5 MART-1 TCR, on Jurkat^α-MART-1 cells or on transduced human PBMCs; assay: T cell capture density against the amount of p/MHC spotted on the covalent surface, Hill fit
[2] = target: F5 MART-1 TCR, on Jurkat^α-MART-1 cells or on transduced human PBMCs; assay: immuno-PCR of the DNA tag after staining of cells, gel electrophoresis
[3] = target: F5 MART-1 TCR, on Jurkat^α-MART-1 cells or on transduced human PBMCs; assay: multiplexed cell sorting of a 1:1 cell mix; the number is an average over spots A and B
[4] = target: TCR specific for tyrosinase368-376, on Jurkat^α-Tyr cells; assay: immuno-PCR of the DNA tag after staining of cells, gel electrophoresis (non-cognate control)
[5] = target: TCR of murine OT1 lymphocytes (specific for OVA257-264); assay: cell-based or functional assay
[6] = target: TCR specific for tyrosinase368-376, on Jurkat^α-Tyr cells; assay: cell capture on a NACS array, mean of three spots of about 600 µm
[7] = target: TCR specific for tyrosinase368-376, on Jurkat^α-Tyr cells; assay: multiplexed cell sorting of a 1:1 cell mix; the number is an average over spots A and B

K1/2 (p/MHC monomer at half max) [1]: 5.7 ng
Substance: fluorescent MART-1 SA-PE tetramer (MART-1 26-35 loaded onto HLA-A2.1 MHC molecules) (from UniProt P61769 21-119) (peptide-MHC)

PCR cycles to detection of the DNA tag [2]: < 15 cycles
average density (T cells/spot) [3]: 661 T cells/spot
PCR cycles to detection of the DNA tag [4]: 10 cycles
Substance: MART-1 26-35/HLA-A2.1 ssDNA-p/MHC tetramer on the SAC scaffold (from UniProt P61769 21-119) (peptide-MHC)

IFN-y clusters (ELISPOT-type sandwich assay on the array) [5]: 3 clusters
Substance: H-2Kb-OVA257-264 ssDNA-p/MHC tetramers (SAC scaffold, encoded to strands A', B' and C') (from UniProt P01901 22-305) (peptide-MHC)

mean binding capacity (cells per spot) (T cells per spot) [6]: 1490
average density (T cells/spot) [7]: 661 T cells/spot
Substance: tyrosinase368-376/HLA-A2.1 ssDNA-p/MHC tetramer on the SAC (streptavidin-cysteine) scaffold (from UniProt P61769 21-119) (peptide-MHC)
